Assay results: article PMC7438732, “The H^+-Translocating Inorganic Pyrophosphatase From Arabidopsis thaliana Is More Sensitive to Sodium Than Its Na^+-Translocating Counterpart From Methanosarcina mazei” (Frontiers in Plant Science, 2020)

Test system: O=P(O)(O)OP(=O)(O)O
Assay: cells, lysate or membranes
Conditions: 0 mM added NaCl, 100 mM KCl, pH 7.2, 30 °C, Mg2PPi substrate without excess Mg2+, Na+ from Na4PPi present

Sequence of MVP (Methanosarcina mazei Go1) (chain, as listed by the source): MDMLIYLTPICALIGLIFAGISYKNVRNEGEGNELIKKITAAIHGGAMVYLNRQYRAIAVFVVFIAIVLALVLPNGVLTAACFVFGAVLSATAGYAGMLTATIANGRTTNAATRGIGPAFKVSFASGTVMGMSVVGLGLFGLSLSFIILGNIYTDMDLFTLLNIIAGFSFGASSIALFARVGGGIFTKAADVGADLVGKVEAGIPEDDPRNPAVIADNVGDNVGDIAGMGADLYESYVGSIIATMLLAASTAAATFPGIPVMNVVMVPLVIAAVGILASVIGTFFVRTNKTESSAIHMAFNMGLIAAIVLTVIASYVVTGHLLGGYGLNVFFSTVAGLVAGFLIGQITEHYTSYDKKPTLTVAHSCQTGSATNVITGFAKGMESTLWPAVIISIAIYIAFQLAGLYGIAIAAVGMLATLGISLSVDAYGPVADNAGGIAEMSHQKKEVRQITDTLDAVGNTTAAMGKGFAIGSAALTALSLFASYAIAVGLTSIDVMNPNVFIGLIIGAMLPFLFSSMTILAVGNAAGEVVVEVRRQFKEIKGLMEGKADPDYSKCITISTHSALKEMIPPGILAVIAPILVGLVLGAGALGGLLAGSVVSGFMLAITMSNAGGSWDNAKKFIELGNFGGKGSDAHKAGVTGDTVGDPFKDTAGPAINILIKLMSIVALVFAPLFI

MVP (Methanosarcina mazei Go1) gave a K0.5 of 0.27 ± 0.27 mM.
